142 substances from the supplement of paper PMC12042874 can be followed below.

± gives the uncertainty stated by the source.

A short description of this series: amyloid nucleation score (Sup35N fusion, yeast selection) (log enrichment); library NNK1; higher = more nucleation; inactive = no reads after selection. Put shortly: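 DiMSum was used to calculate nucleation scores as log enrichment of output over input reads, centred on the mode score of non-aggregating sequences. Sequences with fewer than 100 input reads were not scored. Input and output came from Illumina sequencing of plasmid inserts in psi-negative yeast expressing peptides of 20 random codons fused to Sup35N, induced 24 hours with 100 μM copper sulfate and then grown 7 days at 30°C on medium lacking adenine and uracil.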
On to NGLSMSLSCRYTLWVIFFSF, for which the amyloid nucleation score was -0.157 ± 1.2. In turn, NGMSSFRCLYMWARTFPVSN came in with an amyloid nucleation score of -0.424 ± 0.99. Turning to NGMVTLYR, the amyloid nucleation score amounted to 0.977 ± 0.55. Substance NGRFSADS returned an amyloid nucleation score of -1.77 ± 1.6.

Substance NGSSLVANELRVWIVSSFML displayed an amyloid nucleation score of -0.59 ± 0.64.

For the substance NGTAVCLVRSLVYAHHGRQG, the amyloid nucleation score stood at 0.481 ± 0.38.

NGVVLLFFSDSADMRLCAAM came in with an amyloid nucleation score of 0.319 ± 0.58. Turning to NGWILNLVWTVKNTSMTLIW, the amyloid nucleation score worked out at 0.678 ± 0.51.

Take NGYYRLSWIKWVQKDGRVRR: the amyloid nucleation score came out at 0.598 ± 1. On to NHCSLFCAFSW, for which the amyloid nucleation score is 1.86 ± 0.67. For the substance NIFWST, the amyloid nucleation score was determined as 0.361 ± 0.78.

On to NIGVMVLVLDARKDKRFGKI, for which the amyloid nucleation score amounted to 7.65 ± 0.082. NIIDVTSDSCKPYHILEAIV returned an amyloid nucleation score of 0.015 ± 0.34. To NILMFEMVVRSFIGLTEKFL belongs 0.69 ± 1; to NINYLFVLYMDGSCMYWRAL, 6.354 ± 0.049. Turning to NISDTIC, the amyloid nucleation score is 0.474 ± 0.85. As for NISVVGSSING, the amyloid nucleation score amounted to 0.713 ± 0.23.

The substance NKEVNYTNIINCVGIRGCRL returned an amyloid nucleation score of 4.77 ± 0.051. As for NKKKSLRWKGTGNGVPLVVQ, the amyloid nucleation score is -0.399 ± 0.86. The substance NKLAHSNVDKAKLRDNPQAG showed an amyloid nucleation score of -0.407 ± 1.

Substance NKLRGGVGERSVLQGWIEED displayed an amyloid nucleation score of -0.052 ± 0.53. For the substance NKMGFSRCSLQGDVKFF, the amyloid nucleation score was -0.482 ± 0.51. The value for NKRTLLVVY was -1.19 ± 0.81; that for NKSCDGVRLCREARKALEPC was 0.34 ± 0.52. NKYVVETDH yielded an amyloid nucleation score of -0.604 ± 1.1. NLASNVRESVGSGIYLMNIS returned an amyloid nucleation score of 1.97 ± 0.6. As for NLEWGLYISTANCPRNYDKA, the amyloid nucleation score entry was “inactive”. In turn, NLFLVIPAFDLLMFGSERSS gave an amyloid nucleation score of 5.55 ± 0.063.

NLGAMWLNVVPVYLKWVAL showed an amyloid nucleation score of -0.095 ± 0.32.

The substance NLGFTRSPHAETSLFTH had an amyloid nucleation score of 0.235 ± 0.47. For the substance NLGYDCGLGAMSGWMRWLIS, the amyloid nucleation score worked out at 0.459 ± 0.64. The value for NLPVGLEAM was -0.327 ± 0.62; that for NLRHALRMVTNGLSCTRKHG was -0.278 ± 0.43. Turning to NLRIGFVEQLSSGVLDGPDD, the amyloid nucleation score amounted to 0.471 ± 0.97. NLRYYQFRSRSPTAWGHTMF returned an amyloid nucleation score of -0.744 ± 0.58. NLSIYIYSNNLLLNVF had an amyloid nucleation score of 6.194 ± 0.052. NLSQSLVHRVSSVEYTLRLL: the amyloid nucleation score entry was “inactive”.

On to NLVAT, for which the amyloid nucleation score was 1.09 ± 0.67. For the substance NLWKVFCSCLNRDMKALGNW, the amyloid nucleation score was -1.04 ± 0.51. NMDRVSFLR: the amyloid nucleation score was -0.062 ± 0.6. The substance NMLFLSRGDP showed an amyloid nucleation score of -0.499 ± 1.9. In turn, NMRYHGISCRYRKYYFRWLD yielded an amyloid nucleation score of -0.261 ± 0.31. The substance NMSLSWRTNRYAWPMVCLIR displayed an amyloid nucleation score of 0.182 ± 0.23.

The substance NMVSCGDALR came in with an amyloid nucleation score of -0.554 ± 1.7.

Substance NMYNVRLFVPHFSLECLTWY returned an amyloid nucleation score of 2.87 ± 0.12. The substance NNACMSSYVVGYRSIVMVK came in with an amyloid nucleation score of 0.558 ± 1.1. For NNDINFSDLFRCGERTYVFW, the amyloid nucleation score was 2.24 ± 0.18. To NNGAVVSGS belongs -0.046 ± 0.25. Substance NNKSEVF came in with an amyloid nucleation score of 1.46 ± 0.74. Take NNPDTMSI: the amyloid nucleation score worked out at 0.44 ± 0.56. NNSSIVFLW: the amyloid nucleation score was -0.057 ± 1.4. In turn, NNYYA yielded an amyloid nucleation score of -0.616 ± 0.52. NPGRLRFTGTMRRTQKIEVA returned an amyloid nucleation score of -0.876 ± 0.49. NPHEDRGLESQSAPGGRKWR gave an amyloid nucleation score of 1.74 ± 0.64. The value for NPVGSSRVVYRAPNHVIV was 1.18 ± 0.58; that for NRFNRYNVFPVYDQNLESPL was 0.205 ± 0.38. Substance NRIISLCSLSCDYLNLDWCI returned an amyloid nucleation score of 7.13 ± 0.08. For the substance NRLATLVDVTVMQSNTFELL, the amyloid nucleation score amounted to 0.748 ± 0.35.

NRLIGGLFSCVCTADQSTHS showed an amyloid nucleation score of 8.419 ± 0.047. With NRSYNN, the amyloid nucleation score is -0.243 ± 0.29. In turn, NRTDKKDTLRWLFPT had an amyloid nucleation score of 0.435 ± 0.81. For NSDGSLSKTRKRAGAQVSRQ, the amyloid nucleation score is 0.312 ± 1.1. The substance NSITAQRVWVPPFVCLGDRY showed an amyloid nucleation score of 0.146 ± 0.44. NSKRTGASLRIELRLQFRKR gave an amyloid nucleation score of -0.215 ± 0.39. Consider NSSYTCPNFRHTFCRYICYA, for which the amyloid nucleation score was 0.533 ± 0.27. To NSWRRE belongs 1.02 ± 0.93. NSYFWSGEIIIEYQRP yielded an amyloid nucleation score of -1.23 ± 0.65. The substance NTKELVYKMGCGVRYHGKWG showed an amyloid nucleation score of 1.28 ± 0.71. In turn, NTLTMIHLIVLTELSLFK gave an amyloid nucleation score of 0.297 ± 0.26.

NTRYYFENNMR: the amyloid nucleation score was -0.599 ± 0.4.

Substance NTSSFVSTNWSGFPWSGSRY gave an amyloid nucleation score of 2.02 ± 0.24. Consider NTTYQTYR, for which the amyloid nucleation score came out at 4.31 ± 0.074. NTVFL showed an amyloid nucleation score of 0.549 ± 0.39. Substance NTVIVPHLIILLDYSKVWAE registered an amyloid nucleation score of 3.28 ± 0.069. On to NVANVV, for which the amyloid nucleation score is -0.013 ± 1.2. In turn, NVDKHVWFGGVIVVNLWHIR yielded an amyloid nucleation score of 6.827 ± 0.054. In turn, NVGRHV registered an amyloid nucleation score of 0.151 ± 0.9. The value for NVHVFRNRSEITFKRASSWE was 1.08 ± 0.9. In turn, NVKPSDDNVSLRNYGIRYLE returned an amyloid nucleation score of -0.29 ± 1.1. The value for NVLWIPSSGISSVRLEGIAM was 0.393 ± 0.46; that for NVMSSPCIRVGMLRMGVTKS was 1.62 ± 0.51.

NVTFEADLQLLCSRCSWFGT gave an amyloid nucleation score of 3.17 ± 0.061. For the substance NVTFHSRSGV, the amyloid nucleation score was -0.316 ± 0.84. Consider NVVAYTCNFFCDGSLSGYLC, for which the amyloid nucleation score stood at 0.784 ± 0.41. The substance NVYKFCDRAGLCAVGYYLGT registered an amyloid nucleation score of 3.02 ± 0.081.

As for NWFTSMRGLYVSLWYRMKKG, the amyloid nucleation score result is “inactive”.

NWILSLAGFYRSSKVSSCTT came in with an amyloid nucleation score of 0.41 ± 0.67.

NWNVGTQTKHVDNFLHKVIN gave an amyloid nucleation score of -0.315 ± 0.74. The substance NWRFGLYSHIGIWLMVKS yielded an amyloid nucleation score of 1.86 ± 0.38.

Regarding NWSCTYRMVVS, the amyloid nucleation score is -0.598 ± 0.22.

In turn, NWVGGYTEIALLA had an amyloid nucleation score of -0.344 ± 0.78. NYASKLYFFLVVMSRFNRKG came in with an amyloid nucleation score of -0.115 ± 1.7.

Consider NYGAFY, for which the amyloid nucleation score was -0.13 ± 0.63. NYIMTRHPPLGISLPEVGRS yielded an amyloid nucleation score of -0.81 ± 0.85. The value for NYLERHMQHPMRTHVFRGQL was 0.129 ± 0.72; that for NYLLWVQVWCRDWGNWGIMG was 1.41 ± 0.81. Regarding NYRQHHKTSRVLRLDVGTEP, the amyloid nucleation score is -0.252 ± 0.3. For NYSEPDFKFHCVYGVYAMWG, the amyloid nucleation score came out at 0.403 ± 0.88.

NYTVRENGSK gave an amyloid nucleation score of -0.127 ± 0.27.

In turn, NYVSLGDVKRRMPGLFELTA yielded an amyloid nucleation score of 0.048 ± 0.43.

PANIVAFGGLMSIPLVLPVL came in with an amyloid nucleation score of -0.104 ± 0.4.

Consider PCSSVLLEHWSRYASRCEMV, for which the amyloid nucleation score is 1.28 ± 0.58.

On to PCWGGTLGSVKLVVSSSA, for which the amyloid nucleation score entry was “inactive”. To PFEYLVRLIYCEDVAYLGTG belongs -0.148 ± 0.62. As to PFHGFGR, the amyloid nucleation score was -1.04 ± 0.53. Consider PFLQQNKIFNGLYEMTNWVA, for which the amyloid nucleation score result is “inactive”. In turn, PFLYIDSF showed an amyloid nucleation score of -1.2 ± 1.9.

Turning to PFNKKFRYVMPRLQRTHVFM, the amyloid nucleation score entry is “inactive”.

In turn, PFTYYFEVQLILRKT had an amyloid nucleation score of 0.773 ± 0.79. PFVLYWGKLSYYDAD: the amyloid nucleation score is 0.707 ± 0.55. PFYLEARKVDEVMSLTYIV returned an amyloid nucleation score of -0.693 ± 0.67.

With PGLDFLGLLHQLISVFAIRL, the amyloid nucleation score came to 0.111 ± 0.48. In turn, PGRSSRLR yielded an amyloid nucleation score of -0.071 ± 1.1. The value for PGSCFVMCCDLDKRKGSADE was -0.559 ± 0.62; that for PGVSDPYLDECKVTFKI was 0.715 ± 0.31; that for PGYQTSWWYMLKCKTSSLNY was 0.468 ± 0.47.

Consider PIFKMDCGDMVCT, for which the amyloid nucleation score stood at 0.121 ± 0.22. PIHGISFFDAYNL displayed an amyloid nucleation score of -0.128 ± 1.4. In turn, PIHYEPSKAVYYTQFRGGMG displayed an amyloid nucleation score of -0.184 ± 0.42. Take PIKVMIFVCNGFRKWHLMQH: the amyloid nucleation score is 0.268 ± 1.1.

PKMPGMVYDTPN returned an amyloid nucleation score of -1.49 ± 2.4.

PKSIGAFLTCHISRHVYYVI showed an amyloid nucleation score of 1.08 ± 0.66.

In turn, PLCHWKA had an amyloid nucleation score of -0.325 ± 0.53.

On to PLCLNRVMISAMGVRVR, for which the amyloid nucleation score is -0.285 ± 0.73.

Take PLNHNSY: the amyloid nucleation score amounted to 1.47 ± 0.51. In turn, PLNSRTCGPFARSSIWDWDT registered an amyloid nucleation score of 0.937 ± 0.9.

As to PLTLFYLLNTHAVEFSKVNC, the amyloid nucleation score is -0.674 ± 0.47. Turning to PLVFCIITGPCV, the amyloid nucleation score is -0.468 ± 0.55.

PLYGC gave an amyloid nucleation score of 0.634 ± 0.72. As for PLYKAVLTDK, the amyloid nucleation score result was “inactive”. Take PMTTWYSVFCAEFL: the amyloid nucleation score was determined as 0.688 ± 0.32. In the case of PNAVCGQWFEDQL, the amyloid nucleation score was -0.269 ± 0.94. To PNDPGKLSHGVSVVLYFDEL belongs 1.5 ± 0.39; to PNIRHYVYNHN, “inactive”. PNYHGVRGM displayed an amyloid nucleation score of -0.086 ± 1.2.

In turn, PPFDSDKA came in with an amyloid nucleation score of 0.335 ± 0.77. For the substance PQRRSHREKA, the amyloid nucleation score is -0.557 ± 0.62. For the substance PQVGRAYNGGAGFLKYSTWD, the amyloid nucleation score turned out to be 0.229 ± 0.51.

With PRCSMRLLGYTPIYDGKS, the amyloid nucleation score is -0.781 ± 1.1. The value for PRDASWRTFVAKA was -0.026 ± 1.7; that for PRELEKFTLQKSGLHPWISL was -0.686 ± 1.4; that for PRLYGISRKSYVLSIFDVVS was 0.245 ± 0.21.
